Source: patent US20220040319A1 (Regeneron, published 2022)

B1: H4H14638D (bispecific antibody, human IgG4, V domains shown)
VH 1: QVQLVESGGGVVQPGRSLRLSCAASGFTFSNFGMHWVRQAPGKGLEWVAGIWFDGSNKNYIDSVKGRFTISRDNSKNTLYLQMNSLRAEDTAVYYCAREGYDSGTDYIPYDIFDIWGQGTMVTVSS
VH 2: EVQLVESGGGLVQPGGSLRLSCAASGFIVTTNYMTWLRQAPGKGLEWVSLIYSSGHTYYADSVKGRFTISRHNSKNTLYLQMDSLRAEDTAVYYCASAFAADVFDIWGQGTMVTVSS
VL: not shown
B2: H4H14634D (bispecific antibody, human IgG4, V domains shown)
VH 1: QVQLQESGPGLVKPSETLSLTCTVSGDSISSYYWTWIRQPPGKGLEWIGYIFYRGGTTYNPSLKSRVTISVDTSKNQFSLKLRSVTAADTAVYYCARGDDLLVVTSVYWYIDLWGRGTLVTVSS
VH 2: B1 VH 2
VL: not shown
notes: MET x MET bispecific, expressed as human IgG4; also called bispecific antibody No. 10
B3: H4H13312P2 (antibody, human IgG4, V domains shown)
VH: B1 VH 2
VL: not shown
B4: H4H16446D (bispecific antibody, human IgG4, V domains shown)
VH 1: QVQLVESGGGVVQPGRSLRLSCAVSGFTFSSYGMHWVRQAPGKGLEWVANIWYDGTNDYYPYSVKGRFTISRDNSQNTLYLQMNSLRAEDTAVYYCAREDFINYRSFDYWGQGTLVTVSS
VH 2: B1 VH 2
VL: not shown
notes: MET x MET bispecific, expressed as human IgG4; also called bispecific antibody No. 58
B5: H4H14636D (bispecific antibody, human IgG4, V domains shown)
VH 1: EVQLVESGGGLVQPGGSLRLSCAASGFIFSNYEMNWVRQAPGKGLEWISYITSSGNMKYYADSVKGRFTISRDNDKNSLYLQMSSLRVEDTAVYYCVRGGRFLEWLTYYVMVVWGQGTTVTVSS
VH 2: B1 VH 2
VL: not shown
notes: MET x MET bispecific, expressed as human IgG4; also called bispecific antibody No. 74
B6: H4H14638D (bispecific antibody, human IgG4, V domains shown)
VH 1: B1 VH 1
VH 2: B1 VH 2
VL: not shown
notes: MET x MET bispecific, expressed as human IgG4
B7: H4H14641D (bispecific antibody, human IgG4, V domains shown)
VH 1: QVQLVESGGGVVQPGRSLRLSCSASGFSFSHFGMHWVRQVPGGGLEWVTSIWFDGSNRYYADSLKGRFTISRDNSKNTLYLEMNSLRAEDTAVYYCVREGILGTTNPYDVFDVWGQGTMVTVSS
VH 2: B1 VH 2
VL: not shown
notes: as for B6
B8: H4H16448D (bispecific antibody, human IgG4, V domains shown)
VH 1: QVQLVESGGGVVQPGRSLRLSCVASGFSFSNFGMHWVRQAPGKGLEWVAIIWYDGSNKYYSDSVKGRFTISRDNSKNTLYLQMNSLRVDDTAVYYCARFDRWKFDAFDIWGQGTMVTVSS
VH 2: B1 VH 2
VL: not shown
notes: MET x MET bispecific, expressed as human IgG4; also called bispecific antibody No. 219
B9: H4H16447D (bispecific antibody, human IgG4, V domains shown)
VH 1: QVQLVESGGGVVQPGRSLRLSCAASGFTFSSYAMHWVRQAPGRGLEWVAVIWHDGDVEYYVDSVKDRFTISRDNSKSTLYLQMNSLRAEDTALYYCAREAWDLLRPFDYWGQGTLVTVSS
VH 2: B1 VH 2
VL: not shown
notes: MET x MET bispecific, expressed as human IgG4; also called bispecific antibody No. 154
B10: H4H16449D (bispecific antibody, human IgG4, V domains shown)
VH 1: QVQLVESGGGVVQPGRSLRLSCAASGFTFSSFAMHWVRQAPGKGLEWVAVIWYDGSNDYYAASVKGRFTISRDNSKNTLYLEMNRLRAEDTAVYHCARDNWNYWGGMDVWGQGTTVTVSS
VH 2: B1 VH 2
VL: not shown
notes: as for B6
B11: H4H14637D (bispecific antibody, human IgG4, V domains shown)
VH 1: QVQLVESGGGVVQPGTSLRLSCVASGFTFRNFGMHWVRQAPGKGLEWVANIWFDGSNENYVESIQGRFTISRDNSKNTLNLQMNSLRAEDSAVYYCVREGILGTTNPYDAFDVWGQGTMVTVSS
VH 2: B1 VH 2
VL: not shown
notes: MET x MET bispecific, expressed as human IgG4; also called bispecific antibody No. 90
B12: H4H14640D (bispecific antibody, human IgG4, V domains shown)
VH 1: QVQLVQSGTEVKEPGASVKVSCKASGYSFTTYGISWLRQAPGQGLEWMGWISTYNGDTISAQMLQDRVTLTADTSTRTAYMELRSLRSDDTAVYYCARGHEYDSLVYSYWGQGTLVTVSS
VH 2: B1 VH 2
VL: not shown
notes: MET x MET bispecific, expressed as human IgG4; also called bispecific antibody No. 138
B13: H4H14635D (bispecific antibody, human IgG4, V domains shown)
VH 1: QVQLVESGGGVVQPGRSLRVSCVVSGFTFSSFGMHWVRQAPDKGLEWVAVIWYDGSNDYYSDSVKGRFTISRDNSKNTLFLQMNRLRAEDTAVYYCARANNWNRFDAFDLWGQGTMVTVSS
VH 2: B1 VH 2
VL: not shown
notes: MET x MET bispecific, expressed as human IgG4; also called bispecific antibody No. 42
B14: H4H16445D (bispecific antibody, human IgG4, V domains shown)
VH 1: QVQLVESGGGVVQPGGSLRLSCAASGFTFSGYGMHWVRQAPGKGLEWMAVIWYDGSNDYYPDSVKGRFTISRDNSKNTLYLQMNSLRVEDTAVYYCARDAWDLLRSFDYWGQGTLVTVSS
VH 2: B1 VH 2
VL: not shown
notes: MET x MET bispecific, expressed as human IgG4; also called bispecific antibody No. 26
B15: H4H13311P2 (antibody, human IgG4, V domains shown)
VH: B9 VH 1
VL: not shown
B16: H4H13300P2 (antibody, human IgG4, V domains shown)
VH: B4 VH 1
VL: not shown
B17: H4H13299P2 (antibody, human IgG4, V domains shown)
VH: B5 VH 1
VL: not shown
B18: H4H13319P2 (antibody, human IgG4, V domains shown)
VH: B10 VH 1
VL: not shown
B19: H4H13318P2 (antibody, human IgG4, V domains shown)
VH: B8 VH 1
VL: not shown
B20: H4H13290P2 (antibody, human IgG4, V domains shown)
VH: B2 VH 1
VL: not shown
B21: H4H13309P2 (antibody, human IgG4, V domains shown)
VH: B12 VH 1
VL: not shown
B22: H4H13331P2 (antibody, human IgG4, V domains shown)
VH: QVQLQESGPGLVKSSETLSLTCTVSGGSIRNFYWSWLRQPPGKGLEWIGHINYNGGTDYNPSLKSRVTISVDTSKNQFSLNLNSVTAADTAVYYCARQRFYGMDVWGPGTTVTVSS
VL: not shown

Experiments:
human MET on cells [1] = target: T1, human MET on cells (human, UniProt P08581 25-1390); experiment: cell-based or functional assay
human MET on cells [2] = target: T1, human MET on cells; experiment: cell-based or functional assay; remark: listed apart in the source
[3] = target: T2, hMet.mmh (human MET extracellular domain with C-terminal myc-myc-hexahistidine tag) (human, UniProt P08581 309-914; P08581 27-307); experiment: SPR 37C, antibody captured
T2 construct: soluble monomeric MET; also called monomeric human MET
Procedure: Kinetic association (kₐ) and dissociation (kd) rate constants were determined as described in Example 3.

human MET on cells [4] = target: T1, human MET on cells; experiment: cell-based or functional assay; remark: listed apart in the source
human MET on cells [5] = target: T1, human MET on cells; experiment: cell-based or functional assay; remark: listed apart in the source
Throughout, for % Inhibition, HEK293/SRE-Luc Blocking Activity (HGF, 1 h mAb pre-bind): test concentration or dose not given here.

T1 sequence (P08581 25-1390 limits assumed, form in doubt): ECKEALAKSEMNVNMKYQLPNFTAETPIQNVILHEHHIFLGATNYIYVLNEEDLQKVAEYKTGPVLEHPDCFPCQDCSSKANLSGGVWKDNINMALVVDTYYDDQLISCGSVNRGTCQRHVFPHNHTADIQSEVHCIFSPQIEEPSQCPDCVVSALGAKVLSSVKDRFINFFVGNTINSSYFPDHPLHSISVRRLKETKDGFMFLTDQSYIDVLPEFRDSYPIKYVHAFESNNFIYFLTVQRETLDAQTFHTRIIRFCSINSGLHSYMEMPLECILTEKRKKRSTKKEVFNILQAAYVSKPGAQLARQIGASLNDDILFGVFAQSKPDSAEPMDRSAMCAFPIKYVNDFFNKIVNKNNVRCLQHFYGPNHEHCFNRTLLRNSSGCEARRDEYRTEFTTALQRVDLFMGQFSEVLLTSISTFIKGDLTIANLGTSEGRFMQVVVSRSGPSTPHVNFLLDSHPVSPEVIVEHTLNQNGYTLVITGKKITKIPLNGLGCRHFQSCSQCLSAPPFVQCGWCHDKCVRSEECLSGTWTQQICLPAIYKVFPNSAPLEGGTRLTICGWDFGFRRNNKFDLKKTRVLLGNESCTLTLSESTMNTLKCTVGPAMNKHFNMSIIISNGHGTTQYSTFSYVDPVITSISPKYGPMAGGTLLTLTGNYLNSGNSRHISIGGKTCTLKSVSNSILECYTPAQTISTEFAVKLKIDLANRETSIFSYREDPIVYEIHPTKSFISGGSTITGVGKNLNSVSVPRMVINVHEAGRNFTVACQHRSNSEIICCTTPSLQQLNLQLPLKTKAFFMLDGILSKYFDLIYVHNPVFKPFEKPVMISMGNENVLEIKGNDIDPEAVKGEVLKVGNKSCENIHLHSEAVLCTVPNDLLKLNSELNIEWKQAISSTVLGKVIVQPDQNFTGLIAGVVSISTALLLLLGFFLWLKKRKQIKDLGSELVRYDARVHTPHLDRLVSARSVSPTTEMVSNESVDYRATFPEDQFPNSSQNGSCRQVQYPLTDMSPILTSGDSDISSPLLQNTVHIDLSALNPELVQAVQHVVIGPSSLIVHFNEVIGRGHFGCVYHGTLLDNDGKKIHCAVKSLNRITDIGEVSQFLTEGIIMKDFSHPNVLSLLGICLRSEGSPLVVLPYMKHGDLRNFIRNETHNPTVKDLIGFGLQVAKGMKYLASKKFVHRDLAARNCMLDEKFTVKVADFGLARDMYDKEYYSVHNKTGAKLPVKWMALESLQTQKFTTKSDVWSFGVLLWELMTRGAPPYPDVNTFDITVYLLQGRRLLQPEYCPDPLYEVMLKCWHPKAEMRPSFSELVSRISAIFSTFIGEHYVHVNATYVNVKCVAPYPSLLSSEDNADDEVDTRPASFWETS
T2 sequence (P08581 other isoform, or with tags, fused parts or gaps limits assumed, chain 1 of 2): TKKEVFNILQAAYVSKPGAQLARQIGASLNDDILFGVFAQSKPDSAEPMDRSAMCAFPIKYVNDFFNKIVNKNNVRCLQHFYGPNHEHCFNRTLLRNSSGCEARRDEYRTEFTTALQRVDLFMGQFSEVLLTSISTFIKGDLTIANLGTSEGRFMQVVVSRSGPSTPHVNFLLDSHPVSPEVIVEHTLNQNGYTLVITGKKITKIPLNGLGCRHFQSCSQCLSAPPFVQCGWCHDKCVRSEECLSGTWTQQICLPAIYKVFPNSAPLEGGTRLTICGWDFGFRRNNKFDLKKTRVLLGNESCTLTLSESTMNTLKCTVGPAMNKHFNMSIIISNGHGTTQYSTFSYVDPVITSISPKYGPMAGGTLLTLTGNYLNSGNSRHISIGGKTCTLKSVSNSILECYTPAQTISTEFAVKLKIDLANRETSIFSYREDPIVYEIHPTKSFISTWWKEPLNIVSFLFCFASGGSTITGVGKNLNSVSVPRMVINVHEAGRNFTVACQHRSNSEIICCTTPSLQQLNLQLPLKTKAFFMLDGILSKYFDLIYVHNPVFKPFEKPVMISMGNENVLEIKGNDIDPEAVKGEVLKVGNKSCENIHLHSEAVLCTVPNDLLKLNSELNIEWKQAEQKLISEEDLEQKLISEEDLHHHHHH
T2 sequence (P08581 27-307 limits assumed, chain 2 of 2): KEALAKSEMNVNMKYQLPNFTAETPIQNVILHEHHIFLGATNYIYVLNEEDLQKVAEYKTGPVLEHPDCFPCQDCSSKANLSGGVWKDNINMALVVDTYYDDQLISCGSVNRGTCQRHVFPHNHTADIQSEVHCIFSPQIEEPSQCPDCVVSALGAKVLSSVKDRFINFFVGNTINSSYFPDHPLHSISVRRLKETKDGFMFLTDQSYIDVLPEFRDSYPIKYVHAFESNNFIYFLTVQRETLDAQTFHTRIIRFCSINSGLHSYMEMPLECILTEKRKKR

Row | Binder | % Inhibition, HEK293/SRE-Luc Blocking Activity (HGF, 1 h mAb pre-bind) (human MET on cells [2]) [%] | EC50, Ligand (HGF)-Independent HEK293/SRE-Luc Activation (human MET on cells [2]) [nM] | Fold Response, Ligand (HGF)-Independent HEK293/SRE-Luc Activation (human MET on cells [2]) [fold] | IC50, HEK293/SRE-Luc Blocking Activity (HGF, 1 h mAb pre-bind) (human MET on cells [2]) [nM] | T½ [3] [min] | koff [3] [s⁻¹] | % Growth Inhibition, SNU5 cells (human MET on cells [4]) [%] | also measured
1 | B1 | 79 | 5.9 | 2.6 | 1.1 |  |  |  | Relative MET Level, SNU5 cells, 18 hrs (human MET on cells [1]): 0.35 relative to control (hFc)
2 | B2 |  |  |  |  | ≥ 1160 | ≤ 1e-05 |  | 
3 | B3 | 48 | 0.12 |  |  |  |  | 69 | IC50, SNU5 growth (human MET on cells [4]): 0.78 nM; IC50, 6-day in vitro cytotoxicity, A549 (human MET on cells [5]): > 100 nM; IC50, 6-day in vitro cytotoxicity, EBC-1 (human MET on cells [5]): > 100 nM; IC50, 6-day in vitro cytotoxicity, Hs746t (human MET on cells [5]): > 100 nM; Max % Kill, 6-day in vitro cytotoxicity, A549 (human MET on cells [5]): 7%; Max % Kill, 6-day in vitro cytotoxicity, EBC-1 (human MET on cells [5]): 30%; Max % Kill, 6-day in vitro cytotoxicity, Hs746t (human MET on cells [5]): 0%
4 | B4 |  |  |  |  | 112 | 0.000103 |  | 
5 | B5 |  |  |  |  | ≥ 1160 | ≤ 1e-05 |  | 
6 | B6 |  |  |  |  | 70.2 | 0.000165 |  | 
7 | B7 |  |  |  |  | 35.3 | 0.000327 |  | 
8 | B8 |  |  |  |  | 19.5 | 0.000592 |  | 
9 | B9 |  |  |  |  | 13.6 |  |  | 
10 | B10 |  |  |  |  | 39.3 | 0.000294 |  | 
11 | B11 |  |  |  |  | 35.4 | 0.000326 |  | 
12 | B12 |  |  |  |  | ≥ 1160 | ≤ 1e-05 |  | 
13 | B13 |  |  |  |  | 141 | 8.21e-05 |  | 
14 | B14 |  |  |  |  | 29.4 | 0.000393 |  | 
15 | B15 | 62 | 0.3 | 5.2 | 0.035 |  |  | 8 | 
16 | B16 | 69 | 0.48 | 2.8 | 0.12 |  |  | 16 | 
17 | B17 | 51 | 0.0037 | 14.4 |  |  |  | -8 | 
18 | B18 | 67 | 0.18 | 4.8 | 0.052 |  |  | 23 | IC50, SNU5 growth (human MET on cells [4]): 0.1 nM
19 | B19 | 77 |  | 3.1 | 0.1 |  |  | 18 | IC50, SNU5 growth (human MET on cells [4]): 0.051 nM
20 | B20 | 56 | < 0.002 | 9.8 | < 0.002 |  |  | 12 | 
21 | B21 | 77 | 0.39 | 9.2 | 0.2 |  |  | 22 | IC50, SNU5 growth (human MET on cells [4]): 0.1 nM
22 | B22 | 75 | 0.0023 | 7.1 | < 0.01 |  |  | 5 | 
